Measured values published in patent publication US20080206268A1 (RIJKSUNIVERSITEIT TE LEIDEN, published 2008).

B1: peptide ECVLRDDLL (peptide)
peptide: ECVLRDDLL
notes: synthetic peptide; also called Peptide No. 12; nonameric HA-1^R peptide
B2: nonameric HA-1^R peptide KECVLRDDL (peptide)
peptide: KECVLRDDL
notes: synthetic peptide; also called Peptide No. 8
B3: HA-1^H/R polymorphic region peptide No. 2, EKLKECVLR (peptide)
peptide: EKLKECVLR
notes: synthetic peptide; also called nonameric HA-1^R peptide
B4: HA-1^H/R polymorphic region peptide No. 20, LRDDLLEAR (peptide)
peptide: LRDDLLEAR
notes: as for B3
B5: HA-1^H/R polymorphic region peptide No. 14, CVLRDDLLE (peptide)
peptide: CVLRDDLLE
notes: as for B3
B6: HA-1^H/R polymorphic region peptide No. 4, KLKECVLRD (peptide)
peptide: KLKECVLRD
notes: as for B3
B7: HA-1^H/R polymorphic region peptide No. 6, LKECVLRDD (peptide)
peptide: LKECVLRDD
notes: as for B3
B8: HA-1^H/R polymorphic region peptide No. 22, RDDLLEARR (peptide)
peptide: RDDLLEARR
notes: as for B3
B9: decameric HA-1^R peptide VLRDDLLEAR (peptide)
peptide: VLRDDLLEAR
notes: synthetic peptide; also called Peptide No. 18

target: HLA-A11 on HLA typed EBV-LCLs (human); experiment: cell-based competition HLA peptide binding assay, flow cytometry;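 further: cells given mild acid treatment, then held in medium with 2% FCS and β2 microglobulin, read out as mean cell fluorescence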
Protocol: (§1) Immediately after mild acidic treatment, the cells were washed with 12 ml Iscove's modified Dulbecco's medium (IMDM, Bio Whittaker, Belgium) containing 2% FCS and resuspended in IMDM containing 2% FCS, 1.5 μg/ml β2 microglobulin (Sigma, St. Louis, Mo., US). […] The mean fluorescence expressed by the cells was determined by a FACScalibur flow cytometer (Becton-Dickinson, St. Louis, Mo., US).

Binder	binding result
B1	no binding (tested: 100 to 0.78 µM)
B2	no binding (tested: 100 to 0.78 µM)
B3	no binding (tested: 100 to 0.78 µM)
B4	no binding (tested: 100 to 0.78 µM)
B5	no binding (tested: 100 to 0.78 µM)
B6	no binding (tested: 100 to 0.78 µM)
B7	no binding (tested: 100 to 0.78 µM)
B8	no binding (tested: 100 to 0.78 µM)

target: HLA-B7 on HLA typed EBV-LCLs (human); experiment: as above
Protocol: as §1

Binder	binding result
B1	no binding (tested: 100 to 0.78 µM)
B2	no binding (tested: 100 to 0.78 µM)
B3	no binding (tested: 100 to 0.78 µM)
B4	no binding (tested: 100 to 0.78 µM)
B5	no binding (tested: 100 to 0.78 µM)
B6	no binding (tested: 100 to 0.78 µM)
B7	no binding (tested: 100 to 0.78 µM)
B8	no binding (tested: 100 to 0.78 µM)

target: HLA-A1 on HLA typed EBV-LCLs (human); experiment: as above
Protocol: as §1

Binder	binding result
B1	no binding (tested: 100 to 0.78 µM)
B2	no binding (tested: 100 to 0.78 µM)
B3	no binding (tested: 100 to 0.78 µM)
B4	no binding (tested: 100 to 0.78 µM)
B5	no binding (tested: 100 to 0.78 µM)
B6	no binding (tested: 100 to 0.78 µM)
B7	no binding (tested: 100 to 0.78 µM)
B8	no binding (tested: 100 to 0.78 µM)

target: HLA-A24 on HLA typed EBV-LCLs (human); experiment: as above
Protocol: as §1

Binder	binding result
B1	no binding (tested: 100 to 0.78 µM)
B2	no binding (tested: 100 to 0.78 µM)
B3	no binding (tested: 100 to 0.78 µM)
B4	no binding (tested: 100 to 0.78 µM)
B5	no binding (tested: 100 to 0.78 µM)
B6	no binding (tested: 100 to 0.78 µM)
B7	no binding (tested: 100 to 0.78 µM)
B8	no binding (tested: 100 to 0.78 µM)

target: HLA-A3 on HLA typed EBV-LCLs (human); experiment: cell-based competition on acid-treated EBV-LCLs against 150 nM fluorescent reference peptide, flow cytometry
Protocol: as §1

Binder	IC50 [µM]
B9	37.5
KQSSKALQR [HLA-A3 binder-positive control peptide KQSSKALQR]	9.4

target: HLA-B60 on HLA typed EBV-LCLs (human); experiment: as above
Protocol: as §1

Binder	IC50 [µM]
B2	3.9
